Values of other authors as cited in PMC3179904.

Target: CheA (Escherichia coli) (UniProt P07363)
Sequence of UniProt P07363 (P07363 whole entry): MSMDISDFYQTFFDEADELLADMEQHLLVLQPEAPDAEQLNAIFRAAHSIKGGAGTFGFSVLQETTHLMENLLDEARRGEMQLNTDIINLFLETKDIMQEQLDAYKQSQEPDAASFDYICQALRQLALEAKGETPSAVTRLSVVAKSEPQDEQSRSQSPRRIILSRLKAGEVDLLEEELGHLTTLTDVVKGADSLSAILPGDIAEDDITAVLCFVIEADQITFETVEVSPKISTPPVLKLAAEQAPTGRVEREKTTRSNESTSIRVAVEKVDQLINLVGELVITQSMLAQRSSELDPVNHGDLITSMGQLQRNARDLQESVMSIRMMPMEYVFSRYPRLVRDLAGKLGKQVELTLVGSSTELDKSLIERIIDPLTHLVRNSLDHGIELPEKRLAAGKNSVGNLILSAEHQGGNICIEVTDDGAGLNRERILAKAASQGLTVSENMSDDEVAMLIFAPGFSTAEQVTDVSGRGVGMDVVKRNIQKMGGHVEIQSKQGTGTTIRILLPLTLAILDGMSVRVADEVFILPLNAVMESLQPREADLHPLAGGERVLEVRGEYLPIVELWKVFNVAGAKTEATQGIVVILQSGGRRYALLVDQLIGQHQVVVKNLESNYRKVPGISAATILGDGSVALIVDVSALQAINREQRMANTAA

## CheW (from UniProt P0A964)
  Kd: 17 µM
